According to patent US20110144312A1 (Kyowa Kirin, published 2011):
Residue numbers refer to the chain shown, from its start. Values belong to the binder of their own block, whether it stands above or below them.

Legend:
[1] = target: T1, human IL-10Rα extracellular domain fused to the Fc portion of human IgG1 (human); experiment: ELISA, coated human IL-10Rα:hFc
T1 construct: also called hIL-10Rα:hFc; human IL-10Rα:hFc
Source text: FIGS. 2A-2B show relative binding affinity of anti-human IL-10R antibodies for human IL-10Rα. A) Titration of anti-IL-10Rα antibodies binding to coated human IL-10Rα:hFc. Binding was detected with anti-human kappa-HRP, anti-mouse IgG-HRP, or anti-rat IgG-HRP. […] RPMI-8226 cells were labeled with anti-human IL-10Rα antibodies at various concentrations and detected with anti-human IgG-PE. The commercial rat anti-human IL-10Rα antibody 3F9 was detected with anti-rat IgG-PE. The geometric mean fluorescence intensity (geo mean) data are shown.
IL-10Rα Specific Antibody Detection ELISA: Antibody titers, specificity, and production by hybridomas were determined by ELISA. In brief, 96 well flat bottom Maxisorb plates were coated with 50 μl of hIL-10Rα (R&D Systems, Minneapolis, Minn.) at 1 μg/ml in carbonate buffer (pH 9.4) overnight at 4° C. or at 37° C. for 1 hour. After washing three times with PBS/0.05% Tween 20, plates were blocked with Superblock blocking buffer in TBS (Pierce) at room temperature for 30 minutes. […] The reaction was stopped with H₂SO₄ (LabChem) and the optical density was measured at 450 nm by a microplate reader. […] In this assay, binding of specific human IgG were detected with a peroxidase labeled sheep anti-human kappa antibody (The Binding Site, Birmingham, UK).

[2] = target: T2, cynomolgus macaque IL-10Rα on PBMC (cynomolgus macaque, UniProt Q13651 22-578 (human entry)); experiment: flow cytometry on cynomolgus macaque PBMC, lymphocyte gate; competitor: recombinant human IL-10Rα [C]
T2 construct: Full-length entry cloned from cynomolgus T cells; endogenous on primary PBMC in the assays; also called IL-10Rα on the surface of cynomolgus lymphocytes and monocytes
T2 chain: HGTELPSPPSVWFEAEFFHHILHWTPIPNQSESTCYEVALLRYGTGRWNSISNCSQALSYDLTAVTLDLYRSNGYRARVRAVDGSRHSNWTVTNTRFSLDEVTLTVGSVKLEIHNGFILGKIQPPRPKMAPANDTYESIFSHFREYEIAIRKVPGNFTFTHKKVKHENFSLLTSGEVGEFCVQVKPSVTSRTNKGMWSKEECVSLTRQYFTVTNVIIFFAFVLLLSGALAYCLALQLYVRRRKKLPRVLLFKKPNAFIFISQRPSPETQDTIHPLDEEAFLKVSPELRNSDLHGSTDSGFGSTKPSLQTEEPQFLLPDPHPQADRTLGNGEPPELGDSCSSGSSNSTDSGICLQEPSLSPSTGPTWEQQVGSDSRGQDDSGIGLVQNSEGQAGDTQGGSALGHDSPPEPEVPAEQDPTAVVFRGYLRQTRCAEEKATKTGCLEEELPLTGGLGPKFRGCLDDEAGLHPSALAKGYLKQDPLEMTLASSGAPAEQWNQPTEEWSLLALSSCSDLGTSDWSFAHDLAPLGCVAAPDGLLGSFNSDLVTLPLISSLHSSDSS

fold higher relative binding affinity than 37607 [1]: ~3 fold
binding result [2]: binds
B1: 136C5 (antibody, V domains shown)
VH: EVQLVESGGGLVQPGGSLRLSCAASGFTFSSYSMNWVRQAPGKGLEWVSYISTGSSTIYYADSVKGRFTISRDNAKNSLYLQMNSLRDEDTAVYYCARENYYGSGSYEDYFDYWGQGTLVTVSS
VL: EIVLTQSPATLSLSPGERATLSCRASQSVSSYLAWYQQKPGQAPRLLIYDASNRATGIPARFSGSGSGTDFTLTISSLEPEDFAVYYCQQRSNWPIFTFGPGTKVDIK
notes: Hybridoma antibody, human IgG1, kappa light chain; also called human anti-human IL-10Rα monoclonal antibody 136C5; hybridoma deposit PTA-9131

fold higher relative binding affinity than 37607 [1]: ~3 fold
binding result [2]: binds
B2: 136C8 (antibody, V domains shown)
VH: B1 VH with G54R
VL: B1 VL
notes: Hybridoma antibody, human IgG2, kappa light chain; also called human anti-human IL-10Rα monoclonal antibody 136C8; hybridoma deposit PTA-9132
